B1: GFP-WT-HOOK3 [human] / GM130 (endogenous) [human (endogenous in HeLa)] (parent)
chain 1: MFSVESLERAELCESLLTWIQTFNVDAPCQTVEDLTNGVVMAQVLQKIDPAYFDENWLNRIKTEVGDNWRLKISNLKKILKGILDYNHEILGQQINDFTLPDVNLIGEHSDAAELGRMLQLILGCAVNCEQKQEYIQAIMMMEESVQHVVMTAIQELMSKESPVSAGNDAYVDLDRQLKKTTEELNEALSAKEEIAQRCHELDMQVAALQEEKSSLLAENQVLMERLNQSDSIEDPNSPAGRRHLQLQTQLEQLQEETFRLEAAKDDYRIRCEELEKEISELRQQNDELTTLADEAQSLKDEIDVLRHSSDKVSKLEGQVESYKKKLEDLGDLRRQVKLLEEKNTMYMQNTVSLEEELRKANAARSQLETYKRQVVELQNRLSEESKKADKLDFEYKRLKEKVDSLQKEKDRLRTERDSLKETIEELRCVQAQEGQLTTQGLMPLGSQESSDSLAAEIVTPEIREKLIRLQHENKMLKLNQEGSDNEKIALLQSLLDDANLRKNELETENRLVNQRLLEVQSQVEELQKSLQDQGSKAEDSVLLKKKLEEHLEKLHEANNELQKKRAIIEDLEPRFNNSSLKIEELQEALRKKEEEMKQMEERYKKYLEKAKSVIRTLDPKQNQGAAPEIQALKNQLQERDRLFHSLEKEYEKTKSQREMEEKYIVSAWYNMGMTLHKKAAEDRLASTGSGQSFLARQRQATSSRRSYPGHVQPATAR
chain 2: MWPQPRLPPRPAMSEETRQSKLAAAKKKLREYQQRNSPGVPTGAKKKKKIKNGSNPETTTSGGCHSPEDTPKDNAATLQPSDDTVLPGGVPSPGASLTSMAASQNHDADNVPNLMDETKTFSSTESLRQLSQQLNGLVCESATCVNGEGPASSANLKDLESRYQQLAVALDSSYVTNKQLNITIEKLKQQNQEITDQLEEEKKECHQKQGALREQLQVHIQTIGILVSEKAELQTALAHTQHAARQKEGESEDLASRLQYSRRRVGELERALSAVSTQQKKADRYNKELTKERDALRLELYKNTQSNEDLKQEKSELEEKLRVLVTEKAGMQLNLEELQKKLEMTELLLQQFSSRCEAPDANQQLQQAMEERAQLEAHLGQVMESVRQLQMERDKYAENLKGESAMWRQRMQQMSEQVHTLREEKECSMSRVQELETSLAELRNQMAEPPPPEPPAGPSEVEQQLQAEAEHLRKELEGLAGQLQAQVQDNEGLSRLNREQEERLLELERAAELWGEQAEARRQILETMQNDRTTISRALSQNRELKEQLAELQSGFVKLTNENMEITSALQSEQHVKRELGKKLGELQEKLSELKETVELKSQEAQSLQQQRDQYLGHLQQYVAAYQQLTSEKEVLHNQLLLQTQLVDQLQQQEAQGKAVAEMARQELQETQERLEAATQQNQQLRAQLSLMAHPGEGDGLDREEEEDEEEEEEEAVAVPQPMPSIPEDLESREAMVAFFNSAVASAEEEQARLRGQLKEQRVRCRRLAHLLASAQKEPEAAAPAPGTGGDSVCGETHRALQGAMEKLQSRFMELMQEKADLKERVEELEHRCIQLSGETDTIGEYIALYQSQRAVLKERHREKEEYISRLAQDKEEMKVKLLELQELVLRLVGDRNEWHGRFLAAAQNPADEPTSGAPAPQELGAANQQGDLCEVSLAGSVEPAQGEAREGSPRDNPTAQQIMQLLREMQNPRERPGLGSNPCIPFFYRADENDEVKITVI

Variants of: B1
Assay: coIP (co-immunoprecipitation, blot band intensity quantified)
Details: with GM130 (endogenous) [human (endogenous in HeLa)]; HeLa cells, 100 ng/mL nocodazole for 16 hr (+); read off a plot

For chain 1 S238E S707E, which response is on record?
Its response is 6.5 A.U.

For chain 1 S238A, which response is on record?
The response was 16 A.U.

For chain 1 S238E, which response is on record?
The response was 12 A.U.

With chain 1 S238A S707A as the variant, how does the response read?
Its response is 5.5 A.U.

With chain 1 S707A as the variant, how does the response read?
The response was 16 A.U.

For chain 1 S707E, which response is on record?
The response was 11 A.U.

Source: paper PMC8215223
